Measured values taken from the supplement of paper PMC10126150.
± gives the standard deviation of the averaged measurements.

System: ATP
Test: switch fluorescence ratio, 500 uM ATP over buffer (Cy3 cluster intensity, sum of 5 cycles each) (fold (ratio)); higher = stronger signal-on switching upon ATP binding; sequences stand for … in TCGTCGGCAGCGTCAGATGTGTATAAGAGACAGTTTTTTTTTTTTTTTTTTTTTTTTT…TC
Conditions: aptamer strand: ATP DNA aptamer (quencher-CACCTGGGGGAGTATTGCGGAGGAAGG + anchor), 100 nM annealed; ATP concentration: 500 uM
Method in brief: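 The quencher-labelled ATP aptamer, at 100 nM, was annealed to Cy3-labelled switching-strand clusters on a modified Illumina MiSeq flow-cell. The clusters were imaged in selection buffer, then after 15 min with 500 uM ATP at 22 °C, and this buffer/ATP cycle ran five times with NaOH stripping and re-annealing between runs. Per-cluster fluorescence ratios, summed target-cycle over summed buffer-cycle Cy3 intensity, were averaged per switch-domain sequence. Clusters outside 100-1000 RFU were excluded.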
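Further: ATP exposure 15 min at 22 °C before imaging.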

Sequence	switch fluorescence ratio
AGGGAGCGCG	0.995 ± 0.011
CTTACTCTTT	1.0258 ± 0.00043
CTAAGAGGAC	0.9921 ± 0.0033
TGTTTTTGAG	0.9888 ± 0.0034
AATGGAGGGT	1.03 ± 0.055
TCAGGGGTCG	1.05 ± 0.056
TATTGGGTCG	0.99 ± 0.023
TAAAGGTGTA	1 ± 0.026
TAGCCGATGG	0.994 ± 0.027
AACGTTAGGA	1.03 ± 0.051
ATCCGGGATG	1.03 ± 0.021
GCAAAGCGTC	0.9824 ± 0.0083
CTCTCTTTGA	0.963 ± 0.015
AATGTGCGGG	0.963 ± 0.042
CCGAACTATG	1.135 ± 0.0027
GGACCGGTGA	1.01 ± 0.042
TTTACCGCTC	1.26 ± 0.073
CCAGGTATTT	1.1 ± 0.016
TCCTTGTGGT	0.973 ± 0.037
ATGTAATAGG	0.995 ± 0.046
TTACTTATCT	1.02 ± 0.033
AGCTACGGTG	1.044 ± 0.0052
AGGGCGGGTA	1.01 ± 0.014
GAGAATTAGG	0.964 ± 0.039
TAAGTAATTC	1.08 ± 0.064

Sequence	switch fluorescence ratio
AAGGCGTTTT	1.01 ± 0.018
TATGTAGTAG	0.971 ± 0.042
TAGTTAGACG	1.11 ± 0.1
CTTTGGGGTT	1.01 ± 0.032
GGATTTTTAT	0.999 ± 0.028
GCTGTGTGGC	1.01 ± 0.047
CGGTTAATTT	1.01 ± 0.027
TGTGTAGTTG	0.9821 ± 0.0042
ATATGTCTGG	0.953 ± 0.017
AGAGCCGGGA	0.988 ± 0.043
GGGGCTTTAT	0.992 ± 0.013
GTTACTGGTG	1.05 ± 0.027
TAAGGTCGGC	0.986 ± 0.028
GCAAGAACGC	1.096 ± 0.0023
ATAAGGAGGA	1.1 ± 0.23
TGGGTATTCT	0.945 ± 0.024
AAAGCGCGCT	1 ± 0.07
GCGGGGGGTT	1.01 ± 0.038
GAGAGGGAAG	1.004 ± 0.0077
TAGATTGTGT	0.998 ± 0.027
GTGTTTTCCT	1.04 ± 0.017
TAAGTTAGTG	1 ± 0.016
TTGCGTACGG	1.01 ± 0.053
TCATTCAAGT	1.04 ± 0.011
ACTTAGGCGG	1 ± 0.011

Sequence	switch fluorescence ratio
GGGCTCATCA	0.998 ± 0.041
TGGAGGAAGA	1.04 ± 0.055
GCTTTTCATT	0.988 ± 0.038
AGCTGTGAC	1.07 ± 0.04
CTGAGGAGGA	1.031 ± 0.0076
AAAGGTTCTG	0.992 ± 0.072
GCATTTCAGG	0.98822 ± 0.00033
TTTGGTTTTA	1.004 ± 0.0077
AAGTTTGTTT	0.99 ± 0.028
GGCGTAGTTA	0.985 ± 0.018
GAGGGACGAG	1.05 ± 0.015
TAGTGGTGGG	0.9844 ± 0.0089
TAGAGGAGTT	0.951 ± 0.051
GGGTCTCCAT	1.02 ± 0.03
AAGCGGGGAA	1.02 ± 0.03
GACTTATTAT	1.001 ± 0.0041
TCGCGTTTCT	1.03 ± 0.088
CACATTTTCA	1.01 ± 0.027
TGCCAAATAG	1.02 ± 0.039
AGTGGGTGTT	1.01 ± 0.045
CTATTAGGGA	0.9728 ± 0.0092
GGTATTATCG	0.969 ± 0.017
GTTGGTTTTT	0.975 ± 0.027
ATTCAGGTTT	0.992 ± 0.026
TTAGATCGCC	0.969 ± 0.027

Sequence	switch fluorescence ratio
TTCTAATGAG	0.998 ± 0.019
CGAGTCGGGA	0.999 ± 0.021
TTGGGCTTGG	0.997 ± 0.033
CTTGGGAATT	0.979 ± 0.044
TCAATTTGGG	0.971 ± 0.022
GATAGTATTT	1.005 ± 0.0066
TTTATTCGGC	1.02 ± 0.065
CAGGGGGTCA	0.982 ± 0.015
CTTTTAGTTA	1.01 ± 0.015
GGCTGGGGT	1.02 ± 0.034
TTGGAAAATA	1.009 ± 0.0042
CGGGAGGGGG	1.06 ± 0.07
GGGTCAGGCT	0.981 ± 0.027
CATAGAGTGT	1 ± 0.021
GCGGTACGGT	1.03 ± 0.039
TTTTAGTATG	1 ± 0.02
ATAATCTGGT	0.9965 ± 0.0049
TTTTGTTGTC	0.984 ± 0.037
CCAGACGCGG	1.14 ± 0.051
ACAGTATGGC	0.952 ± 0.041
ATCGAGAGGT	0.973 ± 0.019
CCGGACGGAA	1.12 ± 0.071
TTGGTGGTTC	0.99 ± 0.037
TTGCGGGTTT	1.29 ± 0.38
GCAGGGAGAG	0.964 ± 0.022

Sequence	switch fluorescence ratio
GCGTATATTA	0.998 ± 0.036
CGTGTTGTAC	1.13 ± 0.024
GTTTGTGTTC	0.988 ± 0.015
TTCGTGTGCC	0.94 ± 0.011
AACGTCTCGA	1.01 ± 0.025
TGGGCTTCGT	0.994 ± 0.038
GGTTTGGTCG	1.01 ± 0.037
GAGACCAATC	1.023 ± 0.008
AGTTAATGAC	0.997 ± 0.013
CGATCTTTAC	1.29 ± 0.017
AAAAGAGGCA	1.02 ± 0.025
AATTATTTTG	1 ± 0.045
TCAATGGTTT	1.12 ± 0.21
GGGAGCATTG	1.02 ± 0.037
CAGTATGTTT	0.974 ± 0.044
ATTGAGTTTA	0.99883 ± 7e-05
CGGGATAGGC	1.12 ± 0.02
GGGGGTGTTC	0.991 ± 0.028
CCGTTCAGAA	1.08 ± 0.019
AGGGGACTTT	0.978 ± 0.013
CTCGGTTTGG	1.01 ± 0.028
AGTTCCGAGG	1.12 ± 0.14
TGCATGGATC	1.02 ± 0.012
TGGGAACGAG	1.01 ± 0.017
GAAATTAACT	1.01 ± 0.033

Sequence	switch fluorescence ratio
TCAACGTAGA	1.03 ± 0.014
TTCACTGGGG	1.05 ± 0.012
GGGGGCAGGA	0.987 ± 0.017
AATAATCGGC	0.994 ± 0.06
CGGCGTGAGC	0.993 ± 0.067
CGCGACTTTC	1.09 ± 0.021
ATCACATTGG	1.02 ± 0.071
GTTGCGTCGA	0.997 ± 0.016
AACTATGCAG	1.02 ± 0.017
TCAGGCTAAC	1.01 ± 0.011
AGAATGGGTT	1.03 ± 0.029
GCTTGGATCC	0.966 ± 0.022
GAGAAATGGG	1.07 ± 0.038
AGGATAAGGA	0.987 ± 0.029
TATTAGAGGT	0.997 ± 0.019
GGGGAAGAGT	0.996 ± 0.052
TTTATGAAGC	1.06 ± 0.076
TTCCCTGAGA	0.977 ± 0.025
TGTTACTTAT	1.05 ± 0.016
GCTGTGGGTG	1 ± 0.021
CAATTCGCGA	1.2 ± 0.034
TCCGGGGCAA	3.73 ± 2
TGTTAGTTGG	1.004 ± 0.0038
GGTGAACCGT	1.001 ± 0.0046
CGTTGCGCTG	1.01 ± 0.0069

Sequence	switch fluorescence ratio
TTAGTTGAAT	0.985 ± 0.04
TTTGGTGGGG	1.01 ± 0.029
GCTGGTGCAC	1.01 ± 0.026
CAGGGCAGCG	1.02 ± 0.04
GTTATGGGGT	1.01 ± 0.04
CTGATATGTA	0.969 ± 0.045
AGATATAGCG	1.029 ± 0.0076
CAGTGAGAAC	1.01 ± 0.025
TGGTTTAACA	0.9924 ± 0.003
ACGTAATTGT	1.13 ± 0.061
GCAGTACGGG	1.42 ± 0.26
TCCAGTTTTT	0.999 ± 0.015
AAAGTGGGAG	0.971 ± 0.012
GACGGGGGCA	0.99948 ± 0.00073
TGTGGGATGG	1 ± 0.028
GGTACTATCG	0.961 ± 0.071
CACAGTTACC	1.242 ± 0.0095
GACTTTGTTC	0.983 ± 0.012
GGGCCGGCTG	1.01 ± 0.036
ACATGATTGC	1.029 ± 0.0054
GGTTTATCAG	0.983 ± 0.021
AGTGTGGATT	1.03 ± 0.015
GTTGATGGTG	1 ± 0.039
CACCGGGGTT	1.01 ± 0.018
GATCCAAGGG	1.01 ± 0.021

Sequence	switch fluorescence ratio
TTGCTACGGA	1.04 ± 0.013
TTACGAGGCG	1.004 ± 0.0032
AGGGTCGGAA	1.02 ± 0.018
ATCGCTTAGG	1 ± 0.012
GGGGCCCGAA	0.981 ± 0.035
GAATAGGGGC	0.965 ± 0.01
TTGTACGTGG	1.07 ± 0.023
TTGGTCGCGT	1.003 ± 0.0019
GATGATTTTG	0.979 ± 0.047
AAATGTTGAG	0.975 ± 0.045
ACGAGGGGGA	1.05 ± 0.016
GTTTTAACTT	0.999 ± 0.054
ACACGGCGGC	1.07 ± 0.033
ACGGAGCGGG	1.35 ± 0.25
TAAGGGGGGA	1.03 ± 0.08
TGAGGGTTTA	0.991 ± 0.017
TTCCCGGTGT	1.75 ± 0.041
GATCGAGGGA	1.04 ± 0.14
AAGATGGGGA	1.01 ± 0.016
TAAAATAGAG	1 ± 0.035
CATACGTCTG	1.04 ± 0.017
TTTGGTTTAG	1 ± 0.015
AACTTGGCGC	1.01 ± 0.057
TGTTTTGGGT	0.985 ± 0.039
ATAGCCGGGT	1.04 ± 0.088
